Data published in US20080138334A1, “Immune-Derived Moieties Reactive Against Bioactive Lipids, and Methods of Making and Using Same” (priority 2006, published 2008).
Entries after “also recorded” stand apart in the source; their conditions may differ. Read-outs that look alike come from different tables or passages of the source. Each block holds one molecule with its values, some of them ahead of it.

How the values were obtained:
[1] = Direct ELISA, chimeric antibody and mutants binding to S1P; details: for Binding: antibody concentration 0.1 ug/ml, S1P-coated plate
Description: Microtiter ELISA plates (Costar) were coated overnight with S1P diluted in 1 M Carbonate Buffer (pH 9.5) at 37° C. for 1 hr. Plates were washed with PBS (137 mM NaCl, 2.68 mM KCl, 10.1 mM Na2HPO4, 1.76 mM KH2PO4; pH 7.4) and blocked with PBS/BSA/Tween-20 for 1 hr at room temp or overnight at 4° C. For the primary incubation (1 hr at room temp.), a standard curve using the anti-S1P mAb and the samples to be tested for binding was built using the following set of dilutions: 0.4 μg/mL, 0.2 μg/mL, 0.1 μg/mL, 0.05 μg/mL, 0.0125 μg/mL, and 0 μg/mL, and 100 μl added to each well. Plates were washed and incubated with 100 μl per well of HRP conjugated goat anti-mouse (1:20,000 dilution) (Jackson Immuno Research) or HRP conjugated goat anti-human (H+L) diluted 1:50,000 (Jackson Immuno Research) for 1 hr at room temperature. After washing, the enzymatic reaction was detected with tetramethylbenzidine (Sigma) and stopped by adding 1 M H2SO4. The optical density (OD) was measured at 450 nm using a Thermo Multiskan EX. Raw data were transferred to GraphPad software for analysis.
The chromogenic reaction was measured and reported as Optical density (OD). The concentration of the panel of antibodies was 0.1 ug/ml. No interaction of the second antibody with S1P-coated matrix alone was detected.

[2] = tested on: Caki-1 cells; test: In vitro IL-8 production, ELISA of culture supernatants; format: cell-based, human; details: 18:1 LPA (0.2 mM), 24h, non-treated cells
Description: Three anti-LPA mAbs (B3, B7 and B58) were tested for their abilities to reduce in vitro IL-8 production compared to a non-specific antibody (NS). Caki-1 cells were seeded in 96 well plates and grown to confluency. After overnight serum starvation, cells were treated with 18:1 LPA (0.2 mM) with or without anti-LPA mAb B3, B7, B58 or NS (Non-Specific). After 24h, cultured supernatants of renal cancer cells (Caki-1), treated with or without LPA and in presence of increasing concentrations of the anti-LPA mAbs B3, B7 and B58, were collected and analyzed for IL-8 levels using a commercially available ELISA kit (Human Quantikine Kit, R&D Systems, Minneapolis, Minn.). […] Similar results were obtained with the other well-known pro-angiogenic factor, VEGF. The inhibition of IL-8 release by the anti-LPA mAbs was also observed in other cancerous cell lines such as the pancreatic cell line Panc-1.

[3] = Competitive ELISA for cross reactivity of anti-S1P mAb, competitor DH-S1P; format: binding
Description: (§1) Screening of serum and cell supernatant for S1P-specific antibodies was by direct ELISA using the thiolated S1P analog described in Example 1 (i.e., compound 10) as the antigen. A standard ELISA was performed, as described below, except that 50 ul of sample (serum or cell supernatant) was diluted with an equal volume of PBS/0.1% Tween-20 (PBST) during the primary incubation. ELISAs were performed in 96-well high binding ELISA plates (Costar) coated with 0.1 μg of chemically-synthesized compound 10 conjugated to BSA in binding buffer (33.6 mM Na2CO3, 100 mM NaHCO3; pH 9.5). The thiolated-S1P-BSA was incubated at 37° C. for 1 hr. at 4° C. overnight in the ELISA plate wells. The plates were then washed four times with PBS (137 mM NaCl, 2.68 mM KCl, 10.14 mM Na2HPO4, 1.76 mM KH2PO4; pH 7.4) and blocked with PBST for 1 hr. at room temperature. For the primary incubation step, 75 uL of the sample (containing the S1P to be measured), was incubated with 25 uL of 0.1 ug/mL anti-S1P mAb diluted in PBST and added to a well of the ELISA plate. […] Optical density of the samples was determined by measurement at 450 nm using an EL- X-800 ELISA plate reader (Bio-Tech).
(§2) For cross reactivity, a competitive ELISA was performed as described above, except for the following alterations (FIG. 4). […] Biotin incorporation was determined as per kit protocol and ranged from 7 to II biotin molecules per antibody. […]

[4] = BIAcore binding kinetics of anti-S1P mAb to immobilized S1P; details: depending on monovalent or bivalent binding model, read-out: affinity of the monoclonal antibody to S1P
Description: Binding kinetics: The binding kinetics of S1P to its receptor or other moieties has, traditionally, been problematic because of the nature of lipids. Many problems have been associated with the insolubility of lipids. For BIAcore measurements, these problems were overcome by directly immobilizing S1P to a BIAcore chip. Antibody was then flowed over the surface of the chip and alterations in […] were measured to determine the binding characteristics of the antibody to S1P. To circumvent the bivalent binding nature of antibodies, S1P was coated on the chip at low densities. Additionally, the chip was coated with various densities of S1P (7, 20, and 1000 RU) and antibody binding data was globally fit to a 1:1 interaction model.

[5] = Competitive ELISA for cross reactivity of anti-S1P mAb, competitor C1P; format: binding; details: C1P (amino group esterified to a fatty acid)
Description: as §1, §2

[6] = Competitive ELISA for cross reactivity of anti-S1P mAb, competitor LPA; format: binding; details: LPA (glycerol backbone)
Description: as §1, §2

[7] = Competitive ELISA for cross reactivity of anti-S1P mAb, competitor S1P; format: binding
Description: as §1, §2

[8] = Competitive ELISA for cross reactivity of anti-S1P mAb, competitor SPC; format: binding; details: competitor SPC (free phosphate linked with a choline)
Description: as §1, §2

[9] = ELISA with exchanged crosslinker or protein carrier in the laydown material; format: binding
Description: For example, the normal crosslinker SMCC was exchanged for IOA in conjugating the thiolated-S1P to BSA as the laydown material in the ELISA. […] Similarly, KLH was exchanged for BSA as the protein that was complexed with thiolated-S1P as the laydown material.

Molecule: MetLeu
- Binding [1]: 1.6 OD

Molecule: lysophosphatidic acid [LPA]
- increase of the expression of IL-8 [2]: 100%

Second part, led by results:

- binding to S1P compared with the chimeric antibody ([1]; ELISA, substitution of Cys at position 50 of heavy chain): did not alter the binding
- Binding [1]: 2 OD
Molecule: CysPhe

- competition for the mAb binding to S1P on the plate [3]: can compete for binding
- Kd ([4]; lower end): ~0.088 nM
- Kd ([4]; upper end): ~99 nM
- antibody binding [5]: no antibody binding was observed
- antibody binding [6]: no binding
- competition for the mAb binding to S1P on the plate ([7]; competitor free S1P): can compete for binding
- binding characteristics versus BSA laydown ([9]; KLH exchanged for BSA as protein): no significant difference
- binding characteristics versus BSA-SMCC-thiolated-S1P laydown ([9]; SMCC exchanged for IOA): nearly identical
B1: anti-S1P mAb: murine IgG1 kappa monoclonal antibody against S1P from hybridoma clone 306D326.26 (ATCC SD-5362) (antibody, V domains shown)
VH: QAHLQQSDAELVKPGASVKISCKVSGFIFIDHTIHWMKQRPEQGLEWIGCISPRHDITKYNEMFRGKATLTADKSSTTAYIQVNSLTFEDSAVYFCARGGFYGSTIWFDFWGQGTTLTVS
VL: ETTVTQSPASLSMAIGEKVTIRCITTTDIDDDMNWFQQKPGEPPNLLISEGNILRPGVPSRFSSSGYGTDFLFTIENMLSEDVADYYCLQSDNLPFTFGSGTKLEIK
- distinction of thiolated-S1P analog (compound 10) from natural S1P ([7]; competition experiment): unable to distinguish
- competition for the mAb binding to S1P on the plate [8]: somewhat reduced; also recorded: only slightly competes for binding
